Measurements reported in publication PMC6699511.

Key:
[1] = biological target: his-HCF[K919I, A933L], His-tagged myosin heavy chain fragment with coiled-coil stabilizing mutations (Mus musculus); assay: SEC
[2] = biological target: his-HCF, His-tagged myosin heavy chain fragment K810-E934 (Mus musculus); assay: pull-down
[3] = biological target: his-HCF[K919I, A933L], His-tagged myosin heavy chain fragment with coiled-coil stabilizing mutations (Mus musculus); assay: pull-down

stoichiometry N [1]	stoichiometry N (RLC per his-HCF) [2]	stoichiometry N (RLC per his-HCF[K919I, A933L]) [3]	Molecule
2	–	–	his-HCF[K919I, A933L], His-tagged myosin heavy chain fragment with coiled-coil stabilizing mutations (domain or fragment)
–	1	1	myosin regulatory light chain without His-tag (RLC), P97457 1-169 (natural protein, modifications not checked) MPKCAKRRAGAEGSSNVFSMFDQTQIQEFKEAFTVIDQNRDGIIDKEDLRDTFAAMGRLNVKNEELDAMMKEASGPINFTVFLTMFGEKLKGADPEDVITGAFKVLDPEGKGTIKKQFLEELLTTQCDRFSQEEIKNMWAAFPPDVGGNVDYKNICYVITHGDAKDQE
